Experimental data as given in the DeepSol protein solubility set.

Test: soluble on expression in E. coli; label from the status in PepcDB or PDB records

Soluble on expression in E. coli, not soluble:
MGSDKIHHHHHHMPNIDTFVPEKIQIGISSCLLGNQVRFDGGHKNSYYCRQEIEPFFEYTTVCPEMAIGMGTPRKSIRQIRDGDVVHIRSADGTLDVTDKLNEYSQAKVEELDYLGGYILCAKSPTCGMERVTEYKIGTNNGSKTGVGVFAKKLMERYPLLPVEEEGRLHDLPLRENFFTRVFAYNDWKQMTQSGLTKHKLMQFHSRYKYLLMAHSPKWYRDLGPILADIQDVEQTAQQYFEGFMTALKIIATRKNHTSTLQHIQGYFKKQLTAEQKEELSESILKYRQGLLPLLVPITLINHYVREFHTPYIQDQVYLNPHPEALKLRYAY
MAHHHHHHMRDRVSPGMRPYRNMCASSPCGRLSHWVVALLPLPLSGTRHLLLRIPITRTHTHTHAAHATDKSEVLSSVVAPPPPPGHAALTTVYFVLVVDVGTHLSLSLSMNRDGVEDGIYVNFFGFDGKAAMLACDMYGILPENLLYLPKKMFLQTGDESEQVLLVRYTMCERSRQGTFRTLLGAKSKLIAEGKVEALWEERRRVCQGAAPCPRFTEKQLEEAAAALDTDSESDEERQVDERGMRKPPPPLPPAPPFAPDGPRGEAAAEAAATENDESPTPVTDTPFSRAPDSEPLPPPPTQASSDAGGETRRGSGTTATNDNAALAVDAKRTTQQLPNDWTQYDVVNSLELPRAHKLCSQPPSIPQAYFPRLLETLSMEEKELAAAQKELSRYSKKSARRLRARQQERSNEPSAPGRSTSLPPLSSSPAHKPATTHLHQSVELRNRRELAAVHRVAQAHLRFLSERYEQGRSIDEKMEGVATLGTLEHMLKYQKSIGVAPEFEDRLQSKMVREESRAALQQQLRESEWERAYAIEEKAQHAQEVLERERERTKGIVAEALRTQRLITDWKQVAAHRQQETHLNGVLHRSAVRHAKADAYIETKRAATGMSRYYHDQQEVHRRQLRDTIRDMMISKKFSADGVADEDNDVVA
GPGSMKLERSSCFEVQGCISCLTQASNEDACLASTMMNGAHIFHMGDLQHAQCGARQAVTHVETFPHGNFGEGAVISSSFVSYDSCFATGSSSGDIVLVSRHSKNVVQHYSFQNKAAVLSLKEVPNEPSLLLACSPTDAQIIDLETSTARINLHIPKPCVVGGTALTQNTLVVAAYDGKAMLYDVRRGHEPVVILAVPDQIISITSSPDTGAVATGTVSGRVFVLRCLEGNVREEAFSTGKERAPIRSVAMRNGYIAAGDTSAKLTCLDLKEDPKPTRYWDLHSLLTNESGPPSSGAEKLSSVTVPDTESWSLPAVMLQQSDLWAALSSTKYGVSHILAIPI
MGGMPITSFKFLYYFQIDDGDEETDIYLSPKEKATQTFSIKYNNNNTPTFSGDLRAGEKYTFDFHINFYDFATITIVQKREGEEELRIEYLNIPVEKRSEDHFERHF
MGSDKIHHHHHHMARLAVEPLEALARYQGEPALAAMRREFLPAVTDPVWRGLVEEFLTLDEPLTPYAHQCRRVWSFAASPGSGAHHAHIGGLALHVLQDLRNARALAEAHEARGLALDRGLLFAAIMLHDCLKRFVYDFDDDYALVKAEDPFIARHEDHHSWMLRELVARGVDRTLVLAVAAMHGLDDVSLASGVRPLAVVNHYLEIGLTGLEMQPEDVRAEHSIGFLSDSDWPWSGRAQQRAREVAAALSPRFEVTTGYMNLYLGSRFSFEHIDSLLRTKGHDGTVDHLSTLLEKQG
MKITLSKRIGLLAFLLPCALALSTTVHAETNKLVIESGDSAQSRQHAAMEKEQWNDTRNLRQKVNKRTEKEWDKADAAFDNRDKCEQSANINAYWEPNTLRCLDRRTGRVITPLEHHHHHH
MNETTNEQEVLLLRRKLDLLLRTGKLLMESAADTNRIERNMKRVAAYLGIPEEKLHIDIRWTMLMVNVSDEKHSFSKFQKCEKHGINMEAISKISKLSWRAIEQDYSLDKYEEELEKIARQERNYTPYVVAICTGFACGGFCK
MAEGGTPVVATKPPVDNAKMLGELKLRLMHTKKGLLAIRGELQRRAEIWGAAQEEITALEKMASDAKERIQKQSDQKREERKLAAQKRKELKQKQKEEKKEESKDEKDGADDEKNDEN
MGSDKIHHHHHHMAFILMQNINKTFHGVKALNRVNLSLDYGEALCLAGQNGCGKSTLIKILSGVYQPDKGAEIQIGASKYTKLTPQASIEQGIQVIYQDLALFPNLTVAENIAINLHRKLGWVSQSEIHQVALNAILSINADLDLNAILEDLPIAQQQLVAICRALAQNARLLIMDEPTASLTAKEVQDLLKVVLKLKSKGISIIFVSHKLQEVMSVSDTVLVLKNGNMVGQYPISEMDEKRLGFLMTGLEIDYKRLDLPDFSQNRTVLEVQNLTLPNQYESINFSLREGEIIALTGLLGSGRTELCLSLFGITQPKSGDILLNGEKVIFQNNRDAIKQGIAYVSEDRMTTGLIMTESIHHNIISTIFHKITDKFNIIKSSKAYNYSQELIESLKIKVTDSDLPVNTLSGGNAQRVSIAKWLAIDPRIIILDAPTIGVDIANKEGIFQIIRTLAQKGIAVIFVTDEVEEAYYNSHKVIVMKKGKIVGEILPIYTTEKSIAEVVYENHQ

Soluble on expression in E. coli, soluble:
HHHHHHSSGLVPRGSHMMNPFHDLEPGPNVPEVVYALIEIPKGSRNKYELDKETGLLKLDRVLYTPFHYPVDYGIIPRTWYEDGDPFDIMVIMREPTYPLTIIEARPIGLFKMIDSGDKDYKVLAVPVEDPYFKDWKDISDVPKAFLDEIAHFFKRYKELEGKEIIVEGWEGAEAAKREILRAIEMYKEKFGKKE
MSLNHLNDKVNEIKDNFYGLIGHAYLEKYITKPIVDEDKLRFLYTMLAEKLPKKDTKLFTLSALLVDAALEIHEAVSLHNIQTDPIKKNRQLNVLAGDYYSSLYYYLLADSRHLPIIQVFSHSIQEINEYKMKLYDGKNIDFDEVKNNVDKVDTFLLQNLAEHFQLTTWKKAISVFFHLKRLVHEREAWINGKATPLMKAIVTELFGSNRPVDELKKDDQLQVLELWEEKVEEGKDHLLEHVKALLPKFERFFVDHLNDLFGPDYIHEKVAEEGEGHHHHHH
MDSKSHGWLIGANGTILETHDGGEHWEPRTFDFLRMDEEINYRFESISCYGNEGWIVGKPPILLHTQNGGKDWERIPLSSKLPGEPVLITALGPNRAELATTAGAIYTTDNGGKNWKALVKETIDATLNRTTSSGVTGASYYTGTVISITRDCNGYYLAISSRGNFYVTWHPGQEYWTPHPRDSSRRIQSMGFVQNDIHKGLWMANNGGFLGFSPPNPSLDTVSSIPFQRVDIRTGGYGILDVAFHQQKRNEVWASVGSGILYRSFDGGKHWEKDPWLDHLGSVLYRIKFVENSGFILGAKGTLLRYNG
MVKIYLIEHVIGAVAYDENGNIVDYITNPRDLGKITEELLNNEKGIPFSATVELLKKVNPQEVVVENEAEVPKLQALGYRVSYEPYSKVSRIFRESLPKVAIDIKFASNEEDYYNFLHELSLEYTRRKLRSAAQKRDLLAIQAVRAMDDIDKTINLFSERLREWYSIHFPELDKLIEDHEEYATIVSRFGDRGFLTIDSLKELGFNEQRINRILDAAKKSIGADISEDDLSAMRMIANTILDLYNIRRNLNNYLEGVMKEVAPNVTALVGPALGARLLSIAGSLDELAKMPASTIQVLGAEKALFRALRSGGRPPKHGIIFQYPAIHTSPRWQRGKIARALAAKLAIAARVDAFSGRFIGDQLNEQLKKRIDEIKEKFAQHHHHHHHH
MTADANKSESLLCMDKAREAIKSGDTDKARRMLLKAKKLDPGQNIEFLTKKIDDMTNNTSSSSQTSSSRASEERSYAHDDHYDDPNLRNRKARSPVKKNGKTEPEPKQRSASRTPKLGVDYTSEQKELVERIRHCKDYYEILKIDKKASDDDIRKEYRKLALKLHPDKCRAPHATEAFKALGNAYAVLSDTDKRRQYDQYGAEAANSHTPTTRRRGGGHGAFFEHDYAHGFEAEFTPEEIFNMFFGGGFPTEQVRRRARYAQQQQYHHYEQQQSPYGPLLQLLPLIAIMVIGLLAQLMVGEPAYSLHQTSKFTIKRLTADLRVPYFVRTDFETSYRGRIRQVEQQVEDDYIQNLRMNCYKEQNLKETKLYRARWMRDEAMMRDAERTPLPSCIRLNEIYSH
MATVDPIRYPIGTFQAPQQFEAGEVQEWIAAIRGLPSDLRTAVSGLNDEQLNTPYREGGWTVAQVVHHLADASMNAFLRTKWGVTEDGPTVKPFAESEWAKTADACLLPIEPSLLLLDGLHARWAALLESMTEADFHRTVRPEGAAGEMPLYVLTALYAWHGKHHTAQVASLRKRKGW
MRFVMPGDRIGSAEEYVKGEGVYEEGGELFAAVAGKLIIKDRVAKVESISPIPEIVKGDVVLGRVVDLRNSIALIEVSSKKGENRGPSNRGIGILHVSNVDEGYVKEISEAVGYLDILKARVIGDNLRLSTKEEEMGVLRALCSNCKTEMVREGDILKCPECGRVEKRKISTDYGKGEW
MKDFWTWERLSFHMVLAYNDDRSFLINTGMPLDLTLRNQEMKKFAGDRAIFRSEDSIEMLRKAGFTPDDIDYVALTPVQDYTIGRLNEFRKSKIFIFRDGWIKDIAAPAYAYFHNRDLFIPKNIFDFVYGEGWKNIIFYDGETELVPGIRAIPVGCHHRSSVAFAINAKDGTYVFTDASFKAENVRNRIPIGIAENIYECLSAYEKIEKIGKLLPAYDPAIDDLYIKLEHHHHHH
MSLENRFDLRCYVVTGAGSVDEVVHTASAAARGGAGVVQVRSKPISPEAMRELASKVALEVARCSPTTRVLIDDHLHVASSLMREGLPIHGVHLGQDDMSVLEARELLGPEAIIGLTTGTLELVAAANELSDVLDYIGAGPFRKTPTKDSGRPPIGLAGYPPLVELSKVPIVAIGDVTPADVRALSATGVAGVAMVRAFSESDDPQQVAENVVANFELGRLSEGHHHHHH
MEEEEYEQIPQENPPEELSQDPVLELSGGLREKEQKTPRRLRLILMGKTGSGKSATGNSILGRDVFESKLSTRPVTKTSQRRSREWAGKELEVIDTPNILSPQVSPEVADAICQAIVLSAPGPHAVLLVTQLGRFTDEDQQVVRRLQEVFGVGVLGHTILVFTRKEDLAGGSLEDYVRETNNQALAWLDVTLARRHCGFNNRAQGEEQEAQLRELMEKVEAIMWENEGDYYSNKAYQYTQQNFRLKELQERQVSQGQGSEDVPGEESWLEGLSQIQKESEEAHRCLLGKADL
GSRRLLEETLAPFRLNHDQLAAVQAQMRKAMAKGLRGEASSLRMLPTFVRATPDGSERGDFLALDLGGTNFRVLLVRVTTGVQITSEIYSIPETVAQGSGQQLFDHIVDCIVDFQQKQGLSGQSLPLGFTFSFPCRQLGLDQGILLNWTKGFKASDCEGQDVVSLLREAITRRQAVELNVVAIVNDTVGTMMSCGYEDPRCEIGLIVGTGTNACYMEELRNVAGVPGDSGRMCINMEWGAFGDDGSLAMLSTRFDASVDQASINPGKQRFEKMISGMYLGEIVRHILLHLTSLGVLFRGQQIQRLQTRDIFKTKFLSEIESDSLALRQVRAILEDLGLPLTSDDALMVLEVCQAVSQRAAQLCGAGVAAVVEKIRENRGLEELAVSVGVDGTLYKLHPRFSSLVAATVRELAPRCVVTFLQSEDGSGKGAALVTAVACRLAQLTR
MSQKTEQDDIPLADDDDTVTIISGGKTPRAAQPLPKEEPPEDPEEKARMITQVLELQNTLDDLSQRVESVKEESLKLRSENQVLGQYIQNLMSSSSVFQSSQPSRPKQ
MSEKKAVIGVVTISDRASKGIYEDISGKAIIDYLKDVIITPFEVEYRVIPDERDLIEKTLIELADEKGCSLILTTGGTGPAPRDVTPEATEAVCEKMLPGFGELMRQVSLKQVPTAILSRQTAGIRGSCLIVNLPGKPQSIKVCLDAVMPAIPYCIDLIGGAYIDTDPNKVKAFRPKK
